# According to patent US20240383980A1 (VITRUVIAE, published 2024):
# T1: recombinant human CD25 (human, UniProt P01589 22-213, limits assumed)
# T1 construct: also called IL-2 receptor subunit a
# T1 sequence (looked up): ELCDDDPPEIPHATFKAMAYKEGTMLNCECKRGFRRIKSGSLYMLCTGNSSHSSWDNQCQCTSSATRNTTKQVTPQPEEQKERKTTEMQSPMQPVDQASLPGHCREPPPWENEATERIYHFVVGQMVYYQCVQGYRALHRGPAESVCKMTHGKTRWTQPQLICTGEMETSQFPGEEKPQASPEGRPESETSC
# B1: VP100 (ch7G7-IgG4) (antibody, V domains shown)
# VH: EVQLVESGGDLVQPRGSLKLSCAASGFTFSSYGMSWVRQTPDKRLELVATINGYGDTTYYPDSVKGRFTISRDNAKNTLYLQMSSLKSEDTAMYFCARDRDYGNSYYYALDYWGQGTSVTVSS
# VL: QIVLSQSPAILSASPGERVTMTCRASSSVSFMHWLQQKPGSSPKPWIYATSNLASGVSARFSGSGSGTSYSLTITRVEAEDAATYYCQQWSSNPPAFGGGTKLEIKR
# notes: Chimeric 7G7 on human IgG4
# B2: VP103 (chimeric alpaca anti-CD3 VHH F10-human IgG4) (Fc fusion)
# chain: QVQLQESGGGLVQAGGSLTLSCAASGFTLDDYAIGWFRQAPGKEREGVSCIRRSDGHTYSADSVKGRFTISSDNAKNTVYLQMNNLKPEDTAVYYCAAGTGWGRYFYAGMDYWGKGTQVTVSSGGGGSGGGGSGGGGSKYGPPCPPCPAPEAAGGPSVFLFPPKPKDTLMISRTPEVTCVVVDVSQEDPEVQFNWYVDGVEVHNAKTKPREEQFNSTYRVVSVLTVLHQDWLNGKEYKCAVSNKGLPSSIEKTISKAKGQPREPQVYTLPPSQEEMTKNQVSLTCLVKGFYPSDIAVEWESNGQPENNYKTTPPVLDSDGSFFLYSRLTVDKSRWQEGNVFSCSVMHEALHNHYTQKSLSLSLGK
# notes: VHH-linker-IgG4 Fc chain; also called Alpaca Anti-CD3 nanobody F10 with V-IGG4-A-Fc
# B3: VP104 (Humanized F10A VHH (C55A)-IgG4) (Fc fusion)
# chain: EVQLLESGGGLVQPGGSLRLSCAASGFTLDDYAIGWVRQAPGKGREGVSAIRRSDGHTYYADSVKGRFTISSDNSKNTVYLQMNSLRAEDTAVYYCAAGTGWGRYFYAGMDYWGQGTLVTVSSGGGGSGGGGSGGGGSKYGPPCPPCPAPEAAGGPSVFLFPPKPKDTLMISRTPEVTCVVVDVSQEDPEVQFNWYVDGVEVHNAKTKPREEQFNSTYRVVSVLTVLHQDWLNGKEYKCAVSNKGLPSSIEKTISKAKGQPREPQVYTLPPSQEEMTKNQVSLTCLVKGFYPSDIAVEWESNGQPENNYKTTPPVLDSDGSFFLYSRLTVDKSRWQEGNVFSCSVMHEALHNHYTQKSLSLSLGK
# notes: also called humanized Anti-CD3 nanobody F10 with free Cys removed and with V-IGG4-A-Fc
# B4: VP101 (hu7G7-IgG4) (antibody, V domains shown)
# VH: EVQLVESGGGLVQPGGSLRLSCAASGFTFSSYGMSWVRQAPGKRLELVATINGYGDTTYYPDSVKGRFTISRDNAKNTLYLQMNSLRAEDTAVYYCARDRDYGNSYYYALDYWGQGTLVTVSS
# VL: EIVLTQSPATLSLSPGERATLSCRASSSVSFMHWLQQKPGQAPKPLIYATSNLASGIPARFSGSGSGTDYTLTISSLEPEDFAVYYCQQWSSNPPAFGGGTKVEIKR
# notes: Humanized 7G7 on human IgG4
# B5: VP001 (Teplizumab H:C114S with V-IGG4-A) (antibody, human IgG4 S228P, kappa, F234A L235A, V domains shown)
# VH: QVQLVQSGGGVVQPGRSLRLSCKASGYTFTRYTMHWVRQAPGKGLEWIGYINPSRGYTNYNQKVKDRFTISRDNSKNTAFLQMDSLRPEDTGVYFCARYYDDHYSLDYWGQGTPVTVSS
# VL: DIQMTQSPSSLSASVGDRVTITCSASSSVSYMNWYQQTPGKAPKRWIYDTSKLASGVPSRFSGSGSGTDYTFTISSLQPEDIATYYCQQWSSNPFTFGQGTKLQITR
# notes: 4 chain IgG format (chVIT-100), IgG4 Fc with S228P, F234A, L235A, K322A; also called chVIT-100
# B6: VP002 (huOKT3 VCD3-L3H3 with V-IGG4-A) (antibody, human IgG4 S228P, kappa, F234A L235A, V domains shown)
# VH: QVQLVQSGAEVKKPGASVKVSCKASGYTFTRYTMHWVRQSPGQGLEWMGYINPSRGYTNYNQKFQGRVTMTTDKSTSTAYMELSSLRSEDTAVYYCARYYDDHYSLDYWGQGTTVTVSS
# VL: EIQLTQSPATLSLSPGERATLSCRASSSVSYMNWYQQKPGQAPRRWIYDTSKLATGIPARFSGSGSGTDYTLTISSLEPEDAAVYYCQQWSSNPFTFGQGTKLEIKR
# notes: 4 chain IgG format (huVIT-100), IgG4; also called huOKT3 H3L3; huVIT-100
# B7: VP008 (VCD25-L2H2 with V-IGG4-B) (antibody, human IgG4 S228P, kappa, F234A L235A, V domains shown)
# VH: QVQLVQSGAEVKKPGASVKVSCKASGYSFTRYWMHWVRQPPGQRLEWMGAIYPGNSDTSYSQKFEGRVTITADTSASTAYMELSSLRSEDTAVYYCSRDYGYYFDFWGQGTTVTVSS
# VL: EIVLTQSPDFQSVTPKEKVTITCRASSSRSYMQWYQQKPDQSPKRLIYDTSKSASGVPSRFSGSGSGTDYTLTINSLEAEDAATYYCHQRSSYTFGQGTKLEIKR
# notes: 4 chain IgG format (huVIT-101), IgG4; also called huBasiliximab H2L2; huVIT-101
# Experiments:
# [1] = biological target: T1, recombinant human CD25; assay: SPR; human CD25 immobilized on CM5 chip (legend of FIG. 8a)
# [2] = biological target: T1, recombinant human CD25; assay: SPR (Biacore T200), human CD25 immobilized on CM5 chip, VP100 injected at 3.125-100 nM, 1:1 fit
# [3] = biological target: T2, recombinant human CD3de (Delta epsilon fusion) (human, UniProt P04234 22-105; P07766 23-126); assay: SPR, Biacore T200; human CD3de immobilized on CM5 chip; 1:1 fit
# T2 construct: It is written here as two chains; also called recombinant human CD3de (delta epsilon subunits)
# T2 sequence (P04234 22-105, stated change not applied, chain 1 of 2): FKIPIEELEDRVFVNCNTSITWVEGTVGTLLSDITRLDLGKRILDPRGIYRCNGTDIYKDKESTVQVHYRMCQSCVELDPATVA
# T2 sequence (P07766 23-126, stated change not applied, chain 2 of 2): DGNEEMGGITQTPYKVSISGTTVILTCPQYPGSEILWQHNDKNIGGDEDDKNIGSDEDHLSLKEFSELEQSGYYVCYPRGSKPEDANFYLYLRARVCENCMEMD
# Procedure: (§1) The binding affinities of VP103 (chimeric alpaca anti-CD3 VHH F10-human IgG4) and VP104 (Humanized F10A VHH (C55A)-IgG4) for recombinant human CD3de (delta epsilon subunits) and recombinant cynomolgus CD3de (delta epsilon subunits) were assessed by SPR on a Biacore T200 (GE Healthcare). FIGS. 13a and 13b show the SPR sensorgrams for VP103 to human CD3de and cynomolgus CD3de immobilized onto the surface of CM5 sensor chip. FIGS. 14a and 14b show the SPR sensorgrams for VP104 to human CD3de and cynomolgus CD3de immobilized onto the surface of CM5 sensor chip. The data were fit with a 1:1 fitting model. […] These constructs can also be paired with anti-CD25 VP008, which is based on basiliximab, which is known to cross-react with cynomolgus CD25.
# [4] = biological target: T3, recombinant cynomolgus CD3de (delta epsilon subunits) (cynomolgus, UniProt Q95LI8 22-105; Q95LI5 22-117); assay: SPR, Biacore T200; cynomolgus CD3de immobilized on CM5 chip; 1:1 fit
# T3 sequence (Q95LI8 22-105, stated change not applied, chain 1 of 2): as the sequence (P04234 22-105, stated change not applied, chain 1 of 2) above, with I5V, N15K, I20V, S32T, D33N, I34N, T64A, S74N, V83L counted along it
# T3 sequence (Q95LI5 22-117, stated change not applied, chain 2 of 2): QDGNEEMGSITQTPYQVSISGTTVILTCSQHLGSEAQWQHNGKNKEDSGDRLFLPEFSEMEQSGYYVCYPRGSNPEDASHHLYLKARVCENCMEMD
# Procedure: as §1
# [5] = biological target: T2, recombinant human CD3de (Delta epsilon …); assay: SPR (Biacore T200), human CD3de immobilized on CM5 chip, VP103 injected at 3.125-100 nM, 1:1 fit
# Procedure: as §1
# [6] = biological target: T3, recombinant cynomolgus CD3de (delta …); assay: SPR (Biacore T200), cynomolgus CD3de immobilized on CM5 chip, VP103 injected at 3.125-100 nM, 1:1 fit
# Procedure: as §1
# [7] = biological target: T2, recombinant human CD3de (Delta epsilon …); assay: SPR (Biacore T200), human CD3de immobilized on CM5 chip, VP104 injected at 3.125-100 nM, 1:1 fit
# Procedure: as §1
# [8] = biological target: T3, recombinant cynomolgus CD3de (delta …); assay: SPR (Biacore T200), cynomolgus CD3de immobilized on CM5 chip, VP104 injected at 3.125-100 nM, 1:1 fit
# Procedure: as §1
# [9] = biological target: T1, recombinant human CD25; assay: SPR; human CD25 immobilized on CM5 chip (legend of FIG. 8b)
# [10] = biological target: T1, recombinant human CD25; assay: SPR, Biacore T200; human CD25 immobilized on CM5 chip; 1:1 fit
# [11] = biological target: T1, recombinant human CD25; assay: SPR (Biacore T200), human CD25 immobilized on CM5 chip, VP101 injected at 3.125-100 nM, 1:1 fit
# [12] = biological target: T2, recombinant human CD3de (Delta epsilon …); assay: SPR, Biacore T200; human CD3de immobilized on CM5 chip
# [13] = biological target: T1, recombinant human CD25; assay: SPR, Biacore T200; human CD25 immobilized on CM5 chip
binder,measurement,setting,value
B1,Kd,[1],3.8 nM
same,Kd,[2],0.009 nM
same,koff,[2],3.56e-06 s⁻¹
same,kon,[2],392000 M⁻¹ s⁻¹
B2,Kd,[3],3.7 nM
same,Kd,[4],2.8 nM
same,koff,[5],0.000972 s⁻¹
same,kon,[5],261000 M⁻¹ s⁻¹
same,koff,[6],0.00112 s⁻¹
same,kon,[6],406000 M⁻¹ s⁻¹
B3,Kd,[3],14.2 nM
same,Kd,[4],13.3 nM
same,koff,[7],0.0651 s⁻¹
same,kon,[7],4.58e+06 M⁻¹ s⁻¹
same,koff,[8],0.0516 s⁻¹
same,kon,[8],3.89e+06 M⁻¹ s⁻¹
B4,Kd,[9],< 1 nM
same,Kd,[10],< 0.001 nM
same,Kd,[11],0.001 nM
same,koff,[11],1.64e-07 s⁻¹
same,kon,[11],126000 M⁻¹ s⁻¹
B5,Kd,[12],5.2 nM
B6,Kd,[12],12.4 nM
B7,Kd,[13],1.2 nM
